Literature values, collected in patent US10822386B2, “Insulin analogues with enhanced stability and reduced mitogenicity” (CASE WESTERN RESERVE UNIVERSITY, priority 2014, dated 2020).

Assays:
[1] = substitution of His^B10 by Asp, versus wild-type
Sprague-Dawley rats = settings: chronic treatment, relative to wild-type insulin
insulin receptor = insulin receptor (Homo sapiens, UniProt P06213); settings: versus wild-type insulin
[2] = tested on: neoplastic cell lines (including a cell line derived from a human breast cancer)

affinity for the insulin receptor (insulin receptor): enhances the affinity
Substance: Asp^B10-insulin
thermodynamic stability of the zinc-free insulin monomer [1]: augment the thermodynamic stability | potency to stimulate lipogenesis (isolated adipocytes): augments in parallel its potency | incidence of mammary tumors (Sprague-Dawley rats): excess incidence of mammary tumors | mitogenicity in cell culture [2]: increased mitogenicity
